The results in this text go back to paper PMC7984459.

The target of the assay is Epac1-camps-PDE4A1. The experiment in a line: molecular brightness analysis.

For Epac1-camps-PDE4A1, the stoichiometry N – broadly, a count of units in the complex or per binding partner – is 2.
